For this assay, the target named is T1, anti-CD47 antibody TJC4.
T1 construct: Tested as whole antibody; It was detected with an anti-human IgG4 secondary antibody, so it is human IgG4; also called therapeutic anti-CD47 antibody
Nature of the assay: indirect ELISA / blocking IC50 of the purified hybridoma antibody against anti-CD47 TJC4. The source says:
The binding of the anti-idiotypic antibodies generated in Examples 2 and 3 to anti-CD47 TJC4 antibody was characterized by indirect ELISA assay, and the IC₅₀ of the anti-idiotypic antibodies was used as a measure of their potential effectiveness in reducing interference by a therapeutic anti-CD47 antibody in a serological assay. Lower IC₅₀ values indicated stronger blocking ability. […] The IC₅₀ value for 9F9H11H8, and, therefore, the blocking ability of 9F9H11H8, was better than those of 37F8C4G12 and 34D8H11B5 (i.e., anti-idiotypic antibodies produced by other hybridoma clones).

T1 sequence (VH, as listed by the source, chain 1 of 2): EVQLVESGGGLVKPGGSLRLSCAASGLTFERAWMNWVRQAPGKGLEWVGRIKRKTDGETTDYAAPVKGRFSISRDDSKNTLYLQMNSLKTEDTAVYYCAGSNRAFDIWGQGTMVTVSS
T1 sequence (VL, as listed by the source, chain 2 of 2): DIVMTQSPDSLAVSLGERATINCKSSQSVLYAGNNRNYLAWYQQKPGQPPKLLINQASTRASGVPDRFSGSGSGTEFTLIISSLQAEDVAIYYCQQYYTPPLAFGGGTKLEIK

B1: anti-idiotypic antibody 9F9H11H8 (antibody, V domains shown)
VH: QIQLVQSGPELKKPGETVKISCKASGFTFTNYGMNWVRQAPGKGLKWMGWINTYTGQPTHADDFKGRFAFSLETSARTAFLEINSLQNEDTATYFCARGGMGVRLRYFDVWGAGTTVTVSS
VL: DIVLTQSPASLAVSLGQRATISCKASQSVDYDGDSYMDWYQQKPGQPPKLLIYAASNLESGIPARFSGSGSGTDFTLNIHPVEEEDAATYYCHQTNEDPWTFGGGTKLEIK
notes: also called 9F9H11F8
In turn, B1 displayed an IC50 of 0.382 µg/mL.

(Values after US20230393144A1 (I MAB BIOPHARMA US, published 2023).)
